Assay results from US20090175866A1, “TREATMENT OF B-CELL MALIGNANCIES” (priority 2004, published 2009).

Experiments:
[1] = biological target: T1, FGFR3 (Homo sapiens, UniProt P22607); assay: Affinity and Koff to FGFR3 measured by BIAcore; type: binding
[2] = biological target: T1, FGFR3; assay: FGFR3 domain specificity of binding

T1 sequence (P22607 23-806): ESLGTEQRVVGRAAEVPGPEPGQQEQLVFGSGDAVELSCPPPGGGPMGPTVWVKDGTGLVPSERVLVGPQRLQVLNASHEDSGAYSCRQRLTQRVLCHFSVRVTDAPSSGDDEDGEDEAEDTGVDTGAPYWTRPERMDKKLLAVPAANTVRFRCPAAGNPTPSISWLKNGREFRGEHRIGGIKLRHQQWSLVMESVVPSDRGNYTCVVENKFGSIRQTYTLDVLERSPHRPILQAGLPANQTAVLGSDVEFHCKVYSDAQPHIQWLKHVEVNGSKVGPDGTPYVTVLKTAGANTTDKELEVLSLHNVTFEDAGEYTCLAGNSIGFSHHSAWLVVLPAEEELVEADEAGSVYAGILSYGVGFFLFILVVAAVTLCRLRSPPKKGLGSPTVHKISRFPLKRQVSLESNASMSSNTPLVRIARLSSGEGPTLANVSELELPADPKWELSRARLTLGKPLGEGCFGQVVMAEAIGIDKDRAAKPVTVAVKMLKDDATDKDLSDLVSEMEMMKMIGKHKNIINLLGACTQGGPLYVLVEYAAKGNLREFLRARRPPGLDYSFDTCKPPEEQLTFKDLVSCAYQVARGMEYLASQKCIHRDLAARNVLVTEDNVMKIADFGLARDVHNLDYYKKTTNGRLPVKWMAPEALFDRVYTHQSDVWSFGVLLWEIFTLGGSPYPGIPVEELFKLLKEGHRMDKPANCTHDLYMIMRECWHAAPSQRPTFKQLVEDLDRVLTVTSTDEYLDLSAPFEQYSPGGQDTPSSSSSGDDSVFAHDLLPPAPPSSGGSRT

Molecule | Kd [1] [nM] | FGFR3 Domain Specificity [2]
PRO-026: HuCAL anti-FGFR3 clone; VH-CDR3 SEQ ID NO:6, VL-CDR3 SEQ ID NO:15 (antibody, V domains shown) VH: QVQLVQSGAEVKKPGASVKVSCKASGYTFTSYYMHWVRQAPGQGLEWMGWINPNSGGTNYAQKFQGRVTMTRDTSISTAYMELSSLRSEDTAVYYCARGYWYAYFTYINYGYFDNWGQGTLVTVSS VL: DIALTQPASVSGSPGQSITISCTGTSSDVGGYNYVSWYQQHPGKAPKLMIYDVSNRPSGVSNRFSGSKSGNTASLTISGLQAEDEADYYCQSYDNNSDVVFGGGTKLTVLGQ | 4 | 3c
PRO-012: HuCAL anti-FGFR3 clone; VH-CDR3 SEQ ID NO:3, VL-CDR3 SEQ ID NO:12 (antibody, V domains shown) VH: QVQLKESGPALVKPTQTLTLTCTFSGFSLSTSGVGVGWIRQPPGKALEWLALIDWDDDKYYSTSLKTRLTISKDTSKNQVVLTMTNMDPVDTATYYCARYHSWYEMGYYGSTVGYMFDYWGQGTLVTVSS VL: DIELTQPPSVSVAPGQTARISCSGDALGDKYASWYQQKPGQAPVLVIYDDSDRPSGIPERFSGSNSGNTATLTISGTQAEDEADYYCQSYDFDFAVFGGGTKLTVLGQ | 14 | 2
PRO-002: HuCAL anti-FGFR3 clone; VH-CDR3 SEQ ID NO:2, VL-CDR3 SEQ ID NO:11 (antibody, V domains shown) VH: QVQLVQSGAEVKKPGASVKVSCKASGYTFTSYYMHWVRQAPGQGLEWMGWINPNSGGTNYAQKFQGRVTMTRDTSISTAYMELSSLRSEDTAVYYCARDFLGYEFDYWGQGTLVTVSS VL: DIELTQPPSVSVAPGQTARISCSGDALGDKYASWYQQKPGQAPVLVIYDDSDRPSGIPERFSGSNSGNTATLTISGTQAEDEADYYCQSYDYSADYVFGGGTKLTVLGQ | 37 | 2

The next lines start with the values.

Kd [1] [nM] | FGFR3 Domain Specificity [2] | Molecule
2.9 | 3c | PRO-055: HuCAL anti-FGFR3 clone; VH-CDR3 SEQ ID NO:9, VL-CDR3 SEQ ID NO:18 (antibody, V domains shown) VH: QVQLVQSGAEVKKPGASVKVSCKASGYTFTSYYMHWVRQAPGQGLEWMGWINPNSGGTNYAQKFQGRVTMTRDTSISTAYMELSSLRSEDTAVYYCARSMNSTMYWYLRRVLFDHWGQGTLVTVSS VL: DIALTQPASVSGSPGQSITISCTGTSSDVGGYNYVSWYQQHPGKAPKLMIYDVSNRPSGVSNRFSGSKSGNTASLTISGLQAEDEADYYCQSYDMYNYIVFGGGTKLTVLGQ
3.7 | 3c | PRO-054: HuCAL anti-FGFR3 clone; VH-CDR3 SEQ ID NO:8, VL-CDR3 SEQ ID NO:17 (antibody, V domains shown) VH: QVQLVQSGAEVKKPGASVKVSCKASGYTFTSYYMHWVRQAPGQGLEWMGWINPNSGGTNYAQKFQGRVTMTRDTSISTAYMELSSLRSEDTAVYYCARNMAYTNYQYVNMPHFDYWGQGTLVTVSS VL: DIELTQPPSVSVAPGQTARISCSGDALGDKYASWYQQKPGQAPVLVIYDDSDRPSGIPERFSGSNSGNTATLTISGTQAEDEADYYCQSYDYFKLVFGGGTKLTVLGQ
6 | 3c | PRO-029: HuCAL anti-FGFR3 clone; VH-CDR3 SEQ ID NO:7, VL-CDR3 SEQ ID NO:16 (antibody, V domains shown) VH: QVQLVQSGAEVKKPGASVKVSCKASGYTFTSYYMHWVRQAPGQGLEWMGWINPNSGGTNYAQKFQGRVTMTRDTSISTAYMELSSLRSEDTAVYYCARTWQYSYFYYLDGGYYFDIWGQGTLVTVSS VL: DIVLTQSPATLSLSPGERATLSCRASQSVSSSYLAWYQQKPGQAPRLLIYGASSRATGVPARFSGSGSGTDFTLTISSLEPEDFATYYCQQTNNAPVTFGQGTKVEIKRT
